In patent publication US20110244457A1:

Experiments:
human IL-8 (human) [1] = target: human IL-8 (human) (UniProt P10145); test: homogeneous immuno-SDA, 100 pM IL-8 in binding mixture, 1 nM Ab1-SA-P1 with 1 nM Ab2-P2 (G265-5-LHP-3) as second proximity member
human IL-8 (human) [2] = target: human IL-8 (human) (UniProt P10145); test: homogeneous immuno-SDA, 1,000 pM IL-8 in binding mixture, 1 nM Ab1-SA-P1 with 1 nM Ab2-P2 (G265-5-LHP-3) as second proximity member
human IL-8 (human) [3] = target: human IL-8 (human) (UniProt P10145); test: homogeneous immuno-SDA with tether oligonucleotide, 10 pM IL-8 in binding mixture, 1 nM Ab1-SA-TO plus RHP-3 with 1 nM Ab2-P2 (G265-5-LHP-3)
human IL-8 (human) [4] = target: human IL-8 (human) (UniProt P10145); test: homogeneous immuno-SDA with tether oligonucleotide, 100 pM IL-8 in binding mixture, 1 nM Ab1-SA-TO plus RHP-3 with 1 nM Ab2-P2 (G265-5-LHP-3)
human IL-8 (human) [5] = target: human IL-8 (human) (UniProt P10145); test: homogeneous immuno-SDA with reversed probe RBD-3v3, 0.1 pM IL-8 in binding mixture, 20 pM Ab1-SA-P1 with 100 pM Ab2-P2 (G265-5-LHP-3), 50 nM blocker RDB-3z8
human IL-8 (human) [6] = target: human IL-8 (human) (UniProt P10145); test: homogeneous immuno-SDA with reversed probe RBD-3v3, 0.5 pM IL-8 in binding mixture, 20 pM Ab1-SA-P1 with 100 pM Ab2-P2 (G265-5-LHP-3), 50 nM blocker RDB-3z8
human IL-8 (human) [7] = target: human IL-8 (human) (UniProt P10145); test: homogeneous immuno-SDA with reversed probe RBD-3v3, 1.0 pM IL-8 in binding mixture, 20 pM Ab1-SA-P1 with 100 pM Ab2-P2 (G265-5-LHP-3), 50 nM blocker RDB-3z8
human IL-8 (human) [8] = target: human IL-8 (human) (UniProt P10145); test: homogeneous immuno-SDA with reversed probe RBD-3v3, 0.25 pM IL-8 in binding mixture, 20 pM Ab1-SA-P1 with 100 pM Ab2-P2 (G265-5-LHP-3), 50 nM blocker RDB-3z8
human IL-8 (human) [9] = target: human IL-8 (human) (UniProt P10145); test: homogeneous immuno-SDA, 10 pM IL-8 in binding mixture, 1 nM Ab1-SA-P1 with 1 nM Ab2-P2 (G265-5-LHP-3) as second proximity member; signal needs both antibodies on IL-8

human IL-8 (human), sequence (P10145 28-99 limits assumed): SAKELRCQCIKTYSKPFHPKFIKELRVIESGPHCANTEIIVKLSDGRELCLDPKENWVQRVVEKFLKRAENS
MAb G265-8 (BD Bioscience Pharmingen), directed against human IL-8, covalently coupled to streptavidin (anti-IL-8 IgG-SA conjugate), sequence (P22629 37-163): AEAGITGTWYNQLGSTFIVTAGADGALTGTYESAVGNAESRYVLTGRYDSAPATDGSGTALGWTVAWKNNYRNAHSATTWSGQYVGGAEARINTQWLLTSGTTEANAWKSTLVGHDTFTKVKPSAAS

Average MOTA (n = 6) (human IL-8 (human) [1]): 73900 | Average MOTA (n = 6) (human IL-8 (human) [2]): 129000 | Average MOTA (n = 6) (human IL-8 (human) [3]): 505 | Average MOTA (n = 6) (human IL-8 (human) [4]): 32200 | Average MOTA (n = 4) (human IL-8 (human) [5]): 23100 | Average MOTA (n = 4) (human IL-8 (human) [6]): 118000 | Average MOTA (n = 4) (human IL-8 (human) [7]): 129000 | Average MOTA (n = 4) (human IL-8 (human) [8]): 81600 | Average MOTA (n = 6) (human IL-8 (human) [9]): 3980
Substance: MAb G265-8 (BD Bioscience Pharmingen), directed against human IL-8, covalently coupled to streptavidin (anti-IL-8 IgG-SA conjugate) (from UniProt P22629 37-163) (antibody)
